Source: paper PMC11355449, “The Discovery and Characterization of a Potent DPP-IV Inhibitory Peptide from Oysters for the Treatment of Type 2 Diabetes Based on Computational and Experimental Studies” (Marine Drugs, 2024)
Read-outs that look alike come from different tables or passages of the source. No end group written: not given here.

Experiments:
DPP-IV [1] = molecular target: T1, DPP-IV (Homo sapiens, UniProt P27487); details: read-out: IC50, DPP-IV inhibition, cited from earlier work
T1 construct: purchased Cayman Chemical 700210
T1 sequence (P27487 whole entry): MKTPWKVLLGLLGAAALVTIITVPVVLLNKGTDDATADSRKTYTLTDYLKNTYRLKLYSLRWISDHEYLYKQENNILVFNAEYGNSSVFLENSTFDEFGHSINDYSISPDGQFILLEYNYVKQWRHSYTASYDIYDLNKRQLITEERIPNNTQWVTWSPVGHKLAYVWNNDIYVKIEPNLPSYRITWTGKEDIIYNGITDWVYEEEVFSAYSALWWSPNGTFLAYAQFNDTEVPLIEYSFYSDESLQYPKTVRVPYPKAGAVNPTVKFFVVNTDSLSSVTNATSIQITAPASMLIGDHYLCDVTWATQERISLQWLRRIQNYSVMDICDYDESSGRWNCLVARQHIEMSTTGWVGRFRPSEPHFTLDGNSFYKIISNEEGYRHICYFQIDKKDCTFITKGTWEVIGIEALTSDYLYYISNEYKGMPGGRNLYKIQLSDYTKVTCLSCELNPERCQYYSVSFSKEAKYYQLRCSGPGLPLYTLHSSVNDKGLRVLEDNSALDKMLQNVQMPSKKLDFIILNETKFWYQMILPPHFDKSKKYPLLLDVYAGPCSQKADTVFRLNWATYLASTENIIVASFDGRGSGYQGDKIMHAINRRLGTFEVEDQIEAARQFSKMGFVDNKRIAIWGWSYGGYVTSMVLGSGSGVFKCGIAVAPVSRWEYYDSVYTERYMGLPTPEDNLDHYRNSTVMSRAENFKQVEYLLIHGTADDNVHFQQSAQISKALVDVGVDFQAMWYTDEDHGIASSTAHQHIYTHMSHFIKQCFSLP

DPP-IV [2] = molecular target: T1, DPP-IV; assay: DPP-IV inhibitory activity in vitro (Cayman DPP (IV) inhibitor screening assay kit); assay type: biochemical; details: substrate Gly-Pro-AMC, 37 °C, 30 min, fluorescence 355/460 nm; dose–response range from 0.52 to 3.65 μM; drc package in R; read-out: IC50, DPP-IV inhibition
Description: Based on the results of the virtual screening, the optimal oyster peptide (key peptide sequences with potent DPP-IV inhibition) was selected and synthesized by Wuxi Maimertop Biotechnology Co., Ltd. (Wuxi, China). Then, the synthesized peptide was subjected to the DPP-IV inhibition activity verification. The DPP-IV inhibitory activity was determined following the instructions of commercial kits: a DPP (IV) inhibitor screening assay kit (700210 Cayman chemicals, USA). Briefly, 30 µL of assay buffer, 10 µL of DPP-IV enzyme, and 10 µL of peptide solution were added to a 96-well plate. Then, 50 µL of substrate (Gly-Pro-AMC, Sigma-Aldrich, Saint Louis, MO, USA) was added to start the reaction. After incubation at 37 °C for 30 min, the absorbance of the reaction mixture was detected under excitation and emission wavelengths of 355 nm and 460 nm, respectively. The DPP-IV inhibitory activity was calculated using the following formula:(1) DPP-IV Inhibition (%)=A− B/A×100% where A was the average fluorescence of 100% initial activity (blank) and B was the fluorescence of the sample.
The 50% inhibitory concentration (IC50) of DPP-IV enzyme activity was calculated using the drc package (https://cran.r-project.org/web/packages/drc/ accessed on 20 July 2024) in R 4.1.2.

[3] = food-derived peptides from silver carp proteins
[4] = food-derived peptides from Sorghum bicolor
[5] = food-derived peptides from sheep

LPIIDI [food-derived peptide from silver carp proteins]
IC50 (DPP-IV [1]; [3]): 105 µM

SLGESLLQEDVEAHK [food-derived peptide from Sorghum bicolor]
IC50 (DPP-IV [1]; [4]): 82.5 µM

LRGFGNPPT
IC50 (DPP-IV [2]): 1.56 µM

LSICGEESFGTGSDHIR [food-derived peptide from Sorghum bicolor]
IC50 (DPP-IV [1]; [4]): 73.5 µM

QLRDIVDK [food-derived peptide from Sorghum bicolor]
IC50 (DPP-IV [1]; [4]): 8.55 µM

MQEHFTCCR [food-derived peptide from sheep]
IC50 (DPP-IV [1]; [5]): 215 µM

RLYLHENK [food-derived peptide from sheep]
IC50 (DPP-IV [1]; [5]): 166 µM

APGPAG [food-derived peptide from silver carp proteins]
IC50 (DPP-IV [1]; [3]): 229 µM
